Source: doi:10.1101/2024.10.01.616059 (bioRxiv, 2024)

Biological target: the molecule itself
Experiment: SEC; native whole-cell lysate of NIH3T3 AP1 KO cells on Yarra SEC-2000 (1 kDa to 300 kDa); fractions immunoblotted

B1: phosphoribosyl pyrophosphate synthetase 2 (PRPS2), mouse, endogenous (enzyme, UniProt Q9CS42 1-318, looked up)
chain: MPNIVLFSGSSHQDLSQRVADRLGLELGKVVTKKFSNQETSVEIGESVRGEDVYIIQSGCGEINDNLMELLIMINACKIASSSRVTAVIPCFPYARQDKKDKSRAPISAKLVANMLSVAGADHIITMDLHASQIQGFFDIPVDNLYAEPAVLQWIRENITEWRNCIIVSPDAGGAKRVTSIADRLNVEFALIHKERKKANEVDRMVLVGDVKDRVAILVDDMADTCGTICHAADKLLSAGATKVYAILTHGIFSGPAISRINSAAFEAVVVTNTIPQEDKMKHCSKIQVIDISMILAEAIRRTHNGESVSYLFSHVPL
notes: PRPS2, mouse, endogenous protein of NIH3T3 cells and mouse tissue; also called P2; source: endogenous, NIH3T3 (parental and CRISPR knockout clones), native lysate; endogenous, C57BL/6 mouse kidney, native lysate
B1 was tested, and the “stoichiometry N” value was 2.
